Measured values reported in US6355610B2 (priority 1998, dated 2002).
Entries after “also recorded” stand apart in the source; their conditions may differ. Ends that are not written are not given here.

Experiments:
35S-HaPrPsen = 35S-HaPrPsen (Mesocricetus auratus, UniProt P04273); type: biochemical, hamster
[1] = target: hamster PrP conversion reaction (PrPsen to PrPres) (Mesocricetus auratus, UniProt P04273); assay: biochemical; set-up: species or system Syrian golden hamster

| Substance | peptide induced aggregation of 35S-HaPrPsen (35S-HaPrPsen) | inhibition of the conversion reaction (in words) [1] | IC50 [1] [µM] |
| --- | --- | --- | --- |
| Aβ1-40 | caused aggregation and pelleting of 35S-HaPrPsen | gave no inhibition of conversion; also recorded: unable to inhibit the PrPsen to PrPres conversion at all concentrations tested | – |
| GAVVGGLGGYMLGSAMSR [P119-130] | – | – | < 100 |
